# In the nanobody polyreactivity screen of Harvey et al. (2022):
# Assay: yeast display, Sf9 membrane polyspecificity reagent, FACS + sequencing; frameworks hold sequencing errors
# Summary of the method: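 Polyreactivity labels are assigned by the sorting gate from which each nanobody was recovered. The gates were low and high (top ~1%), set on anti-HA fluorescence for expression and streptavidin fluorescence for reagent binding. Before sorting, galactose-induced (36–48 hours) yeast display cells were stained for 1 hour at 4 °C with 10% biotinylated, detergent-solubilized Sf9 membrane reagent.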
row,Sequence,polyreactivity (PSR sort gate)
1,QVQLVESGGGLVQAGGSLRLSCPASGRTFKWYAMGWYRQAPGKERELVAAISTGGRTHYADSVKGRFTISRDNSKNTVYLQMNSLKPEDTAVYYCNAADDLADPERTENHKRDYWGQGTQVTVSS,high polyreactivity
2,QVQLVESGGGLVEAGGSLRLSCAASGSTFGYNAMGWYRQAPGKERELVAAISWSGGSTYYADSVKGRFTISRDNAKNTVYLQMNSLKPEDTAVYYCATPYVKWNDYWGQGTQVTVST,low polyreactivity
3,QVQLVESGGGLVQAGGSLRLSCAASGLIFDSYDMGWYRQAPGKERELVAAIRRNGGSTYYADSVKGRFTISRDNAKNTVYLQMNSLKPEDTAVYYCAVDNSGYSGVYWVKMDYWGQGTQVTVSS,low polyreactivity
4,QVQLVESGGGLVQAGGSLRLSCAASGRTFNRNAMGWYRQAPGKERELVAAISWGGSRTYYADSVKGRFTISRDTAKNTVYLQMNSLKPEDTAVYYCAVDGFRGRSHGANDYWGQGTQVTVSS,high polyreactivity
5,QVQLVESGGGLVQAGGSLRLSCAASGSTIISYAMGWYRQAPGKERELVAAISSGGGRTSYADSVKGRFTISRDNAKNTVYLQMNSLKPEDTAVYYCNTKQLPYAEGYWGQGTQVTVSS,low polyreactivity
6,QLQLVESGGGLVQAGGILRLSCAASGLIFAEYAMGWYRQAPAKERELVARITSGGSTDYADSVKGRFTISRDNAKNTVYLQMNSLKPEDTAVYYCAARYYSQDKNASTASDFDYWGQGTQVTVSS,low polyreactivity
7,QVQLVESGGGLVQAGGSLRLSCAATGITFQPYTMGWYRQAPGKERELVASISIRGSRTYYADSVKGRFTISRDNAKNTVYLQMNSLKPEDTAVYYCNAPYNHVWAHSYWYDYWGQGTQVTVSS,high polyreactivity
8,QVQLVESGGGLVQAGGSLRLSCAASGGIFWYNAMGWYRQAPGKERELVAAITWNGGRTYYADSVKGRFTISRDNAKNTVYLQMNSLKPEDTAVYYCAARSPVKRQSRKQYYYWGQGTQVTVSS,high polyreactivity
9,QVQLVDSGGGLVQAGGSLRLSCAASGRTFGVYAMGWYRQAPGKERELVAVINRSGGSTYYADSVKGRFTISRDNAKNTVYLQMNSLKPEDTAVYYCAARVTSHMYYWGQGTQVTVSS,high polyreactivity
10,PVQLVESGGGLVQAGGSLSLTCAASGIIFPVYAMGWYIQAPGKERELVAAITYSGDRTYYADSVKGRFTISRDNAKYTVYLQMNSLKPEDTAVDYFNARFGVWPYFYNEDDYLGQGTQVTVSS,low polyreactivity
11,QVQLVESGGGLVQAGGSLRLSCAASGRTLRTYGMGWYRQAPGKERELVARITIGGRTYYADSVKGRFTISRDNAKNTVYLQMNSLKPEDTAVYYCAARYAGGTSRILYGYWGQGTQVTVSS,high polyreactivity
12,QVQLVESGGGLVQAGGSLRLSCAASGSTFGRYAMGWYRQAPGKEREFVAAISCSGGSTYYADSVKGRFTISRDNAKNTVYLQMNSLNPEDTAVYYWARYSWRGLAEFESWGQGTQVTVSS,low polyreactivity
13,QFQLVESGGGLVQAGGSLRLSCAATGRTFYIYSMGWYRQAPGKERELVAAITSGGSTSYADSVKGRFTISRDNAKNTVYLQMNSLKPEDTAVYYCAADQYTYWFGYDYWGQGTQVTVSS,low polyreactivity
14,QVQLVESGGGLVQAGGSLRLICASSGCTFGDYAMGWYRQEPGKERELVAAITIGGITTYADSVKGRFTISRDTAKYTVYLQRNSLKPEDTAVYYCAAAERGHWDDYWGQGTQVTVSS,low polyreactivity
15,QVQLVESGGGLVQAGGSLRLSCAASGFIFTLYTMGWYRQAPGKERELVAAIDKNGSTYYADSVKGRFTISRDNAKNTVYLQMNSLKPEDTAVYYCAADDRYRGNREDYWGQGTQVNVSS,low polyreactivity
16,QVQLVESGGGLVQAGGSLRLSCAASGRTQWRYAMGWYRQAPGKERELVASIRSGGSTYYADSVKGRFTISRDNAKNTVYLQMNSLKPEDTAVYYCAARYYWGAEAGYYYWGQGTQVTVSS,high polyreactivity
17,QVQLVESGGGLVQAGGSLRLSCAASGIISYVYAMGWYRQAPGKERELVAAINWSGGNTYYADSVKGRFTISRDNAKNTVYLQMNSLKPEDTAVYYCAARAVLKSWAYYYWGQGTQVTVSS,high polyreactivity
18,QVQLVESGGGLVQAGGSLRISCAASGSIFTPNAMGWYRQAPGKERELVAAISSSSDRTYYADSVKGRFTISRDNAKNTVYLQMNSLKPEDTAVYYCNAYYRYGIQFDYWGQGTQVTVSS,high polyreactivity
19,QVQLVESGGGLVQAGGSLRLSCAASGLTIQNNAMGWYRQAPGKERDLVAVITRIGGSTYYADSVKGRFTISRDYEKNTVYLQMNSLKPEDTAVYYCAAGYRTRRRLHVYWGQGTQVTVSS,high polyreactivity
20,QVQLVESGGGLVQAGGSLRLSCAASGFTFRAYVMGWSRQAPGKERELVAAISRSGGSTYYADSVKGRLTISRDNAKNTVYLQMNSLKPEDTAVYYCAAGVPGPRVKIQARFDYWGQGTQVTVSS,high polyreactivity
21,QVQLVESGGGLVQAGGSLRLSCAASGRIFYSYAMGWYRQAPGKERELVARISSGGSTNYADSVKGRFTISRDNAKNTVYLQMNSLNPEDTAVYYCAAATIWSGVHYGYWGQGTQVTVSS,low polyreactivity
22,QVQLVESGGGLVQAGGSLRLSCAASGSIFYKNAMGWYRQAPGKERELVAVISWSGGSTSYADSVKGRFTISRDNAKNTVYLQMNSLKPEDTAVYYCAKEYFTDYLYEYDYWGQGTQVTVSS,low polyreactivity
